Measured values: patent US20160030595A1 (THOMAS JEFFERSON UNIVERSITY, published 2016)

B1: MS7 mouse monoclonal antibody (IgG1k) (antibody, V domains shown)
VH: EVMLVESGGGLVKPGGSLKLSCAASGFTFSTYAMSWVRQTPEKRLEWVATITSGGSYTYYPDSVKGRFTISRDNAKNILYLQMSSLRSEDTAMYYCTRLRQIGLRGFSDYWGQGTTLTVSS
VL: DILMTQSPSSMYASLGERVTITCKASHDIKSYLSWYQQKPWRSPKTLIYYTTALADGVPSRFSGSGSGQDYSLTISSLESDDTATYYCLQHGESPYTFGGGTKLEIK
B2: MS20 mouse monoclonal antibody (IgG2ak) (antibody, V domains shown)
VH: EVQLEESGPELVKPGASVKMSCKASGYTFTDYVISWVKQRTGQGLEWIGVTYPGSGNTYYGERFKGKATLTVDKMSNTAYMQLSSLTSEDSAVYFCTRNYGSFYALDYWGQGTSVTVSS
VL: DILMTQSPATLSVTPGDRVSLSCRASQSIRDYLHWYQHRSHESPRLLIKYASQSISGIPSRFSGSGSGSDFTLTINSVEPEDVGVYYCQNGHSFPTFGGGTKLEIK

Molecular target: T1, human guanylyl cyclase C (GCC) (human, UniProt P25092 24-430, limits assumed)
T1 construct: also called human GCC; STAR
T1 sequence (P25092 24-430 limits assumed): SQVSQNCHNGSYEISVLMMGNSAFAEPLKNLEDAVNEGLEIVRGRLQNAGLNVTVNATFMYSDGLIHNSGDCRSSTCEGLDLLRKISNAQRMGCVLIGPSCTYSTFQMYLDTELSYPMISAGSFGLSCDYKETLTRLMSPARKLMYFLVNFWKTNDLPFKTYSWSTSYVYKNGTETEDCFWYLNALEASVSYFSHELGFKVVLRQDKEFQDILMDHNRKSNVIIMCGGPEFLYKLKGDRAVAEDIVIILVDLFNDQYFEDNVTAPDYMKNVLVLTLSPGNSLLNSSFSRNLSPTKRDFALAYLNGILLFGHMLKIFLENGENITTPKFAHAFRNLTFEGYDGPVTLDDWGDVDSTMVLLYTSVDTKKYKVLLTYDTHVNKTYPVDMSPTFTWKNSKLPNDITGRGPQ
Assay: not described

Row | Binder | binding result
1 | B1 | binds
2 | B2 | binds
